The text below walks through data of publication PMC11154709, “4S-fluorination of ProB29 in insulin lispro slows fibril formation” (The Journal of Biological Chemistry, 2024).

This data set is described as follows: Far-UV circular dichroism (secondary structure). It is filed as physicochemical. The conditions noted are these: 60 μM; statement in discussion of CD spectra. How it is done:
Figure 2 Biological activity and CD spectroscopy of lispro variants.A, lispros were injected subcutaneously into diabetic mice, and blood glucose was measured over time after injection. The data presented here represent the mean ± SD of 3 to 6 biological replicates. B–E, far-UV circular dichroism spectra (60 μM lispro in […] phosphate buffer, pH 8.0). […] 4R-F, 4R-fluoroproline; 4S-F, 4S-fluoroproline.
The secondary structure of each insulin lispro variant was probed by circular dichroism spectroscopy. […] All lispro samples were further analyzed by analytical ultracentrifugation (Fig. S3). To determine the dissociation constant of each variant, we fit the data to a reversible monomer-dimer equilibrium ([29]). […]
Circular dichroism spectroscopy:
Equilibrium measurements: The circular dichroism spectra of insulin or lispro samples (60 µM in
100 mM sodium phosphate, pH 8.0) were measured at 25°C in 1 mm quartz cuvettes using a step
size of 0.5 nm and averaging time of 1 s on an Aviv Model 430 Circular Dichroism
Spectrophotom eter. A reference buffer spectrum was subtracted from each sample spectrum. […]
Analytical ultracentrifugation: […]
Background: Circular dichroism is the unequal absorption of left and right circularly polarised light.

With “human insulin: 5.8 kDa peptide hormone composed of two disulfide-linked chains (A and B)”, the “oligomeric state at 60 μM” value is given as “exists as a dimer at 60 μM”.
